Data from article PMC9763398.

Assays:
TGF-β receptor 1 = TGF-β receptor 1 (UniProt P36897); experiment: co-immunoprecipitation, western blot; settings: reference: wild type Hsp90ab1; sites S225,S254
DYRK1A = DYRK1A (UniProt Q13627); experiment: immunofluorescence co-localisation, confocal overlap index

binding against the reference (TGF-β receptor 1)	other: average overlap index (DYRK1A; reference: wild type Hsp90ab1, sites S225,S254)	other: average overlap index (DYRK1A; reference: wild type β-catenin, sites T551,S552)	Substance
weaker	weaker; reference 0.5378	–	Hsp90ab1 (from UniProt P08238) S225A S254A Hsp90ab1
–	–	weaker; reference 0.8419	β-catenin (from UniProt P35222) T551A S552A β-catenin
